In this data set the target is Nsp15 endoribonuclease WT (SARS coronavirus, UniProt P0C6X7 6430-6775).

B1: rA16 (ssRNA)
RNA: AAAAAAAAAAAAAAAA
Molecule B1 returned an IC50 of 53 nM and a Ki of 7.6 nM.

B2: rU16 (U16) (ssRNA)
RNA: UUUUUUUUUUUUUUUU
For the molecule B2, the midpoint of inhibition, the IC50, lay at 15 nM and the Ki came to 2.3 nM.

The values above are taken from PMC7118729.
